Molecular target: the molecule itself
Assay: AUC; sedimentation velocity, 60,000 rpm, 20 °C; CD20 at 0.5 mg/ml in 20 mM Tris pH 8.0, 150 mM NaCl, CALX-173-GK; also at 0.044 mg/ml after dilution with CALX-173-GK or DDM (0.05%) buffer, where the distribution shifts in favour of the monomer

B1: CD20 (full length, wild type, C-terminal His6 tag) (natural protein, human, UniProt P11836 1-297, looked up)
chain: MTTPRNSVNGTFPAEPMKGPIAMQSGPKPLFRRMSSLVGPTQSFFMRESKTLGAVQIMNGLFHIALGGLLMIPAGIYAPICVTVWYPLWGGIMYIISGSLLAATEKNSRKCLVKGKMIMNSLSLFAAISGMILSIMDILNIKISHFLKMESLNFIRAHTPYINIYNCEPANPSEKNSPSTQYCYSIQSLFLGILSVMLIFAFFQELVIAGIVENEWKRTCSRPKSNIVLLSAEEKKEQTIEIKEEVVGLTETSSQPKNEEDIEIIPIQEEEEEETETNFPEPPQDQESSPIENDSSP
notes: CD20, human, UniProt P11836, full length and wild type, from plasmid pETR17026; Integral membrane protein held in calixarene detergent micelles (CALX-173-GK, or DDM after dilution); also called purified native CD20; recombinant native CD20; source: gel filtration in CALX-173-GK; not shown: His6, C-terminal, kept
binding result: binds

Reference: publication PMC6757138, “Biochemical and biophysical characterization of purified native CD20 alone and in complex with rituximab and obinutuzumab” (Scientific Reports, 2019)
